From US20140030267A1, “COMPOSITIONS, METHODS AND KITS RELATING TO RESISTIN” (The Trustees of the University of Pennsylvania, priority 1999, published 2014)

Experiments:
resistin gene expression = experiment: Northern blot of resistin gene expression in 3T3-L1 adipocytes treated with TZD; type: cell-based, murine; details: rosiglitazone 1 μM
Description: 3T3-L1 cells were differentiated to adipocytes then treated with the indicated vehicles (ethanol [EtOH] or dimethylsulfoxide [DMSO]) or with the indicated TZD compounds (each at 1 μM). Then, RNA was prepared and analyzed using Northern blot analysis using resistin cDNA probe.
FIG. 6 is an image of a Northern blot depicting the time course of resistin expression down-regulation by rosiglitazone. BRL49653 (rosiglitazone) was used at a concentration of 1 μM in DMSO. The Northern blot was probed using mouse resistin cDNA. The position of resistin mRNA is indicated in the image. 3T3-L1 cells were differentiated to adipocytes then treated with rosiglitazone (1 μM) for the indicated times (in hours) before RNA was isolated. Resistin expression was examined using Northern analysis using resistin cDNA probe.
To clone and identify resistin, 3T3-L1 cells were differentiated into adipocytes using a standard protocol using differentiation medium (DM) containing dexamethasone, insulin, isobutylmethylxanthine, and fetal bovine serum as described in Green and Kehinde (1975, Cell 5:19-27) and Green and Meuth (1974, Cell 3:127-133). On the seventh day of culture, the cells were treated with either dimethylsulfoxide (DMSO) or 1 micromolar BRL49653 (rosiglitazone) in DMSO. […]

[1] = Glucose tolerance test in mice after administration of resistin; type: in vivo
Description: Prior to injection into animals, 30 ml of conditioned media harvested from recombinant 293T cells expressing resistin was concentrated into 5 ml using an Ultrafree-15 centrifugal filter device (Millipore).
Male and female mice, 9 weeks of age, were administered 200 microliters of concentrated conditioned media intraperitonially just prior to the dark cycle. Mice were consequently fasted overnight. Twelve hours later, a second intraperitional dose of concentrated CM was administered to each animal. Two hours after the second administration, the mice were given a glucose challenge of 10 microliters per gram of body weight of 20% glucose in PBS solution. Blood glucose levels were determined using a Fast-Take glucometer (Johnson & Johnson) at thirty minute intervals for a two hour period.
The blood glucose levels of mice dosed with resistin are depicted using dotted lines in FIG. 21, and control glucose values are indicated using solid lines (FIG. 21). More specifically, eight female mice (4 per group) were treated with either vehicle (solid lines) or resistin preparation (dashed lines) prepared using conditioned medium obtained from recombinant 293T cells as described elsewhere herein.

Molecule: CN(CCOc1ccc(CC2SC(=O)NC2=O)cc1)c1ccccn1 (stereo not drawn) [rosiglitazone]
- time after exposure at which the effect on resistin expression is maximal (resistin gene expression): 48 h

B1: resistin: mouse resistin (SEQ ID NO:2) in concentrated conditioned medium of recombinant 293T cells expressing resistin (protein)
chain: SSMPLCPIDEAIDKKIKQDFNSLFPNAIKNIGLNCWTVSSRGKLASCPEGTAVLSCSCGSACGSWDIRGGKVCHCQCARIDWTAARCCKLQVAS
- blood glucose 30 minutes after glucose administration ([1]; female mice, intraperitoneal resistin preparation, 30 minutes after glucose challenge): 395.+−0.67 mg/dl
- glucose tolerance ([1]; mice, resistin preparation): reducing glucose tolerance to diabetic levels
